Test results: patent US20110288036A1 (published 2011)
Where no end group is shown, it is not given here.

Legend:
Assay in all cases: cell-based or functional assay
[1] = molecular target: T1, MKK4 (Mitogen-Activated Protein Kinase Kinase 4) (UniProt P45985 1-399)
T1 sequence: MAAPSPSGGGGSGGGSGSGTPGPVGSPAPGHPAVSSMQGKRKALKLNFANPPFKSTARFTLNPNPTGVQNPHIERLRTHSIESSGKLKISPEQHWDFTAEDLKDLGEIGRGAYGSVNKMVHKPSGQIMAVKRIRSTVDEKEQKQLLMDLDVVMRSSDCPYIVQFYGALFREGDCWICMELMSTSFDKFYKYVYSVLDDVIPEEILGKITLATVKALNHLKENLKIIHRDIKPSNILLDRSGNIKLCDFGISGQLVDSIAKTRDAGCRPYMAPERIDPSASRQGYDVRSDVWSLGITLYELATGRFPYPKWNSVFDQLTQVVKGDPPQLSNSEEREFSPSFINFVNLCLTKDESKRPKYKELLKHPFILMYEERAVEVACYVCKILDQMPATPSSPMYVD

[2] = molecular target: JNK (c-Jun N-terminal Kinase)
MEK1 = MEK1 (UniProt Q02750 1-393)
[3] = molecular target: T2, MKK6 (Mitogen-Activated Protein Kinase Kinase) (UniProt P52564 1-334)
T2 sequence: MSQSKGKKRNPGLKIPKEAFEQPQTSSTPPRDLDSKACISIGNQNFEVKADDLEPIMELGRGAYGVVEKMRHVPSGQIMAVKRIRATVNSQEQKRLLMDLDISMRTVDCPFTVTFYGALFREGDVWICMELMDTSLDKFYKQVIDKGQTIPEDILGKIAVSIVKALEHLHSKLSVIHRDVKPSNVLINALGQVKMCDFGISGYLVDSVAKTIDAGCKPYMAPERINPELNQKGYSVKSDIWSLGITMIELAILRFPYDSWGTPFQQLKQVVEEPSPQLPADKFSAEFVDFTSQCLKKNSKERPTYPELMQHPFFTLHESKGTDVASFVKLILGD

[4] = molecular target: T3, PRAK (p38-Regulated/Activated Protein Kinase) (UniProt Q8IW41 1-473)
T3 sequence: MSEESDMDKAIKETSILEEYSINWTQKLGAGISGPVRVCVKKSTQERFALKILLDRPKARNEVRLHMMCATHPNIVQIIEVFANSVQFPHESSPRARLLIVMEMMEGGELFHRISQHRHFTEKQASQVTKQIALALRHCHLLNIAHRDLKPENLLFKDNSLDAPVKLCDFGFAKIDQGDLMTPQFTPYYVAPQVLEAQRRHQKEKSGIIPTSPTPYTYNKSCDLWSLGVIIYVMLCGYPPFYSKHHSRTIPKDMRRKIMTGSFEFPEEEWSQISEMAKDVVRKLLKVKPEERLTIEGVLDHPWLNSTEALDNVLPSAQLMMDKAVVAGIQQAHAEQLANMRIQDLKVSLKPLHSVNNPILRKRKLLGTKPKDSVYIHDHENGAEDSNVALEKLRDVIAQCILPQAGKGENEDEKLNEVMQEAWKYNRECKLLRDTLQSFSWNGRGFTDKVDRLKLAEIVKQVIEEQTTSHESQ

[5] = molecular target: p38 MAPK (p38 Mitogen-Activated Protein Kinase)

YARAAARQARAKALARQLGVAA (not fully specified (C-terminus)) [MMI-0100 (YARAAARQARAKALARQLGVAA; SEQ ID NO: 1)]
Percent Activity (radiometric kinase assay, 100 µM peptide) [1]: 90 percent activity
Percent Activity (radiometric kinase assay, 100 µM peptide) [2]: 92 percent activity
Percent Activity (radiometric kinase assay, 100 µM peptide) (MEK1): 68 percent activity
Percent Activity (radiometric kinase assay, 100 µM peptide) [3]: 50 percent activity
Percent Activity (radiometric kinase assay, 100 µM peptide) [4]: 100 percent activity
Percent Activity (radiometric kinase assay, 100 µM peptide) [5]: 60 percent activity
